# Laboratory results as given in patent US20160193299A1, “MODIFIED NUCLEOSIDE, NUCLEOTIDE, AND NUCLEIC ACID COMPOSITIONS” (Moderna Therapeutics, Inc., priority 2011, published 2016).
# B1: G-CSF: human G-CSF mRNA SEQ ID NO: 6, polyA ~160 nt, Cap1, fully modified with 5-methylcytosine and pseudouridine (nucleic acid, listed as Homo sapiens)
# chain: GGGAAAUAAGAGAGAAAAGAAGAGUAAGAAGAAAUAUAAGAGCCACCAUGGCCGGUCCCGCGACCCAAAGCCCCAUGAAACUUAUGGCCCUGCAGUUGCUGCUUUGGCACUCGGCCCUCUGGACAGUCCAAGAAGCGACUCCUCUCGGACCUGCCUCAUCGUUGCCGCAGUCAUUCCUUUUGAAGUGUCUGGAGCAGGUGCGAAAGAUUCAGGGCGAUGGAGCCGCACUCCAAGAGAAGCUCUGCGCGACAUACAAACUUUGCCAUCCCGAGGAGCUCGUACUGCUCGGGCACAGCUUGGGGAUUCCCUGGGCUCCUCUCUCGUCCUGUCCGUCGCAGGCUUUGCAGUUGGCAGGGUGCCUUUCCCAGCUCCACUCCGGUUUGUUCUUGUAUCAGGGACUGCUGCAAGCCCUUGAGGGAAUCUCGCCAGAAUUGGGCCCGACGCUGGACACGUUGCAGCUCGACGUGGCGGAUUUCGCAACAACCAUCUGGCAGCAGAUGGAGGAACUGGGGAUGGCACCCGCGCUGCAGCCCACGCAGGGGGCAAUGCCGGCCUUUGCGUCCGCGUUUCAGCGCAGGGCGGGUGGAGUCCUCGUAGCGAGCCACCUUCAAUCAUUUUUGGAAGUCUCGUACCGGGUGCUGAGACAUCUUGCGCAGCCGUGAAGCGCUGCCUUCUGCGGGGCUUGCCUUCUGGCCAUGCCCUUCUUCUCUCCCUUGCACCUGUACCUCUUGGUCUUUGAAUAAAGCCUGAGUAGGAAG
# modifications: polyA ~160, Cap1, 5mC/pseudouridine modified
# Key:
# [1] = test system: interferon-alpha (IFN-alpha); assay: Example 22 non-human primate study, cytokine interferon-alpha (IFN-alpha); assay type: in vivo, cynomolgus monkey
# Description: (§1) LNP formulations, shown in Table 31 (above), were administered to non-human primates (NHP) (cynomolgus monkey) (n=2) as intravenous injection (IV). The NHP were administered a single modified mRNA IV dose of 0.5 mg/kg, 0.05 mg/kg or 0.005 mg/kg of G-CSF or EPO in a dose volume of 0.5 mL/kg. The NHPs were bled before dosing with the modified mRNA LNP formulations to determine protein expression in the serum and a baseline complete blood count. After administration with the G-CSF modified mRNA formulation the NHP were bled at 8, 24, 48 and 72 hours to determined protein expression. After administration with the EPO modified mRNA formulation the NHP were bled at 8, 24, 48, 72 hours and 7 days to determined protein expression.
# mice = assay: Saline formulation: human G-CSF / EPO in mouse serum; assay type: in vivo; settings: 100 ug in F. buffer, bled 13 hours after injection, G-CSF group
# Description: The mice were bled at 13 hours after the injection to determine the concentration of the human polypeptide in serum in pg/mL. (G-CSF groups measured human G-CSF in mouse serum and EPO groups measured human EPO in mouse serum).
# human G-CSF = assay: Example 42A saline formulation IM, serum human G-CSF; assay type: in vivo, mice; settings: G-CSF group: human G-CSF in mouse serum, IM 100 ug, 13 hours
# Description: The mice were bled at 13 hours after the injection to determine the concentration of the human polypeptide in serum in pg/mL (G-CSF groups measured human G-CSF in mouse serum and EPO groups measured human EPO in mouse serum).
# IFN-alpha = assay: Example 45 cytokine study in PBMC, IFN-alpha ELISA; assay type: cell-based, human; settings: human PBMC, Lipofectamine 2000
# Description: The plates were then incubated at 37 C.
# Each condition was done in duplicate.
# Shown in Tables 69 and 70 are the average from 2 separate PBMC donors of the G-CSF and IFN-alpha production over time as measured by specific ELISA.
# neutrophil count = assay: Example 41 intravenous administration of lipoplexed G-CSF mRNA, neutrophil count; assay type: in vivo; settings: mice IV, 10% lipoplex, 50 ug at days 0, 2, 4; day 5
# Description: Neutrophils were measured at days 1, 5 and 8. Controls included non-specific mammalian RNA or the formulation buffer alone (F.Buffer). The mice were bled at days 1, 5 and 8 to determine the effect of mRNA-encoded human G-CSF to increase neutrophil count. The dosing regimen is shown in Table 64 as are the resulting neutrophil counts (thousands/uL; K/uL).
# G-CSF = assay: Example 16 lipid nanoparticle in vivo study, serum G-CSF ELISA; design: species or system mice; settings: 100 ug
# red blood cell (RBC) = assay: Example 22 non-human primate study, red blood cell (RBC) count; assay type: in vivo, cynomolgus monkey
# Description: as §1
# [2] = test system: aspartate transaminase (AST); assay: Example 22 non-human primate study, serum chemistry aspartate transaminase (AST); assay type: in vivo, cynomolgus monkey
# Description: as §1
# [3] = Female NHP, 0.005 mg/kg, 4 days
# [4] = Female NHP, 0.005 mg/kg, Pre-dose
# [5] = Female NHP, 0.05 mg/kg, Pre-dose
# [6] = Female NHP, 0.5 mg/kg, Pre-dose
# [7] = Male NHP, 0.005 mg/kg, Pre-dose
# [8] = Female NHP, 0.005 mg/kg, 7 days
molecule,measurement,setting,value
B1,IFN-alpha,[1]; [3],0 pg/mL
same,IFN-alpha,"[1]; Female NHP, 0.005 mg/kg, Day 1 + 8 hr",0 pg/mL
same,IFN-alpha,[1]; [4],0 pg/mL
same,IFN-alpha,"[1]; Female NHP, 0.05 mg/kg, 4 days",0 pg/mL
same,IFN-alpha,"[1]; Female NHP, 0.05 mg/kg, Day 1 + 8 hr",0 pg/mL
same,IFN-alpha,[1]; [5],0 pg/mL
same,IFN-alpha,"[1]; Female NHP, 0.5 mg/kg, 4 days",0 pg/mL
same,IFN-alpha,"[1]; Female NHP, 0.5 mg/kg, Day 1 + 8 hr",529.2 pg/mL
same,IFN-alpha,[1]; [6],0 pg/mL
same,IFN-alpha,"[1]; Male NHP, 0.005 mg/kg, 4 days",0 pg/mL
same,IFN-alpha,"[1]; Male NHP, 0.005 mg/kg, Day 1 + 8 hr",0 pg/mL
same,IFN-alpha,[1]; [7],0 pg/mL
same,IFN-alpha,"[1]; Male NHP, 0.05 mg/kg, 4 days",0 pg/mL
same,IFN-alpha,"[1]; Male NHP, 0.05 mg/kg, Day 1 + 8 hr",0 pg/mL
same,IFN-alpha,"[1]; Male NHP, 0.05 mg/kg, Pre-dose",0 pg/mL
same,IFN-alpha,"[1]; Male NHP, 0.5 mg/kg, 4 days",0 pg/mL
same,IFN-alpha,"[1]; Male NHP, 0.5 mg/kg, Day 1 + 8 hr",503.8 pg/mL
same,IFN-alpha,"[1]; Male NHP, 0.5 mg/kg, Pre-dose",0 pg/mL
same,"Average Protein Product, serum (human G-CSF)",mice,45 pg/mL
same,Average Protein Product,human G-CSF,"19.8 Pg/mL, serum"
same,"innate immune recognition, cytokine production (IFN-alpha and others)",IFN-alpha,"induced IFN-alpha, TNF-alpha and IP10"
same,increase in neutrophil count above control,neutrophil count,four to five fold increase
same,G-CSF Serum Concentration 8-12 hours after administration,"G-CSF; IM, saline",~20 to 80 pg/mL
same,G-CSF Serum Concentration 8-12 hours after administration,G-CSF; IV (Lipoplex),~30 pg/mL
same,G-CSF Serum Concentration 8-12 hours after administration,"G-CSF; SC, saline",~10 to 40 pg/mL
same,RBC,"red blood cell (RBC); Female NHP, 0.005 mg/kg, 14/18 days",5.34 10^12/L
same,RBC,"red blood cell (RBC); Female NHP, 0.005 mg/kg, 24 hours",5.35 10^12/L
same,RBC,"red blood cell (RBC); Female NHP, 0.005 mg/kg, 3 days",5.24 10^12/L
same,RBC,red blood cell (RBC); [8],5.34 10^12/L
same,RBC,red blood cell (RBC); [4],5.36 10^12/L
same,RBC,"red blood cell (RBC); Female NHP, 0.05 mg/kg, 14/18 days",5.26 10^12/L
same,RBC,"red blood cell (RBC); Female NHP, 0.05 mg/kg, 24 hours",5.08 10^12/L
same,RBC,"red blood cell (RBC); Female NHP, 0.05 mg/kg, 3 days",5.04 10^12/L
same,RBC,"red blood cell (RBC); Female NHP, 0.05 mg/kg, 7 days",5.05 10^12/L
same,RBC,red blood cell (RBC); [5],5.64 10^12/L
same,RBC,"red blood cell (RBC); Female NHP, 0.5 mg/kg, 14/18 days",4.92 10^12/L
same,RBC,"red blood cell (RBC); Female NHP, 0.5 mg/kg, 24 hours",4.96 10^12/L
same,RBC,"red blood cell (RBC); Female NHP, 0.5 mg/kg, 3 days",4.97 10^12/L
same,RBC,"red blood cell (RBC); Female NHP, 0.5 mg/kg, 7 days",5.04 10^12/L
same,RBC,red blood cell (RBC); [6],5.57 10^12/L
same,RBC,"red blood cell (RBC); Male NHP, 0.005 mg/kg, 14/18 days",5.37 10^12/L
same,RBC,"red blood cell (RBC); Male NHP, 0.005 mg/kg, 24 hours",5.34 10^12/L
same,RBC,"red blood cell (RBC); Male NHP, 0.005 mg/kg, 3 days",5.32 10^12/L
same,RBC,"red blood cell (RBC); Male NHP, 0.005 mg/kg, 7 days",5.25 10^12/L
same,RBC,red blood cell (RBC); [7],5.67 10^12/L
same,RBC,"red blood cell (RBC); Male NHP, 0.05 mg/kg, 14/18 days",5.43 10^12/L
same,RBC,"red blood cell (RBC); Male NHP, 0.05 mg/kg, 24 hours",4.96 10^12/L
same,RBC,"red blood cell (RBC); Male NHP, 0.05 mg/kg, 3 days",5.13 10^12/L
same,RBC,"red blood cell (RBC); Male NHP, 0.05 mg/kg, 7 days",5.17 10^12/L
same,RBC,"red blood cell (RBC); Male NHP, 0.05 mg/kg, Pre-dose",5.68 10^12/L
same,RBC,"red blood cell (RBC); Male NHP, 0.5 mg/kg, 14/18 days",4.21 10^12/L
same,RBC,"red blood cell (RBC); Male NHP, 0.5 mg/kg, 24 hours",4.66 10^12/L
same,RBC,"red blood cell (RBC); Male NHP, 0.5 mg/kg, 3 days",4.91 10^12/L
same,RBC,"red blood cell (RBC); Male NHP, 0.5 mg/kg, 7 days",4.8 10^12/L
same,RBC,"red blood cell (RBC); Male NHP, 0.5 mg/kg, Pre-dose",5.57 10^12/L
same,AST,"[2]; Female NHP, 0.005 mg/kg, 2 days",34 U/L
same,AST,[2]; [3],36 U/L
same,AST,[2]; [8],31 U/L
same,AST,"[2]; Female NHP, 0.005 mg/kg, 14 days",20 U/L
same,AST,[2]; [4],54 U/L
same,AST,"[2]; Female NHP, 0.05 mg/kg, 2 days",34 U/L
same,AST,"[2]; Female NHP, 0.05 mg/kg, 4 days",42 U/L
same,AST,"[2]; Female NHP, 0.05 mg/kg, 7 days",52 U/L
same,AST,"[2]; Female NHP, 0.05 mg/kg, 14 days",20 U/L
same,AST,[2]; [5],33 U/L
same,AST,"[2]; Female NHP, 0.5 mg/kg, 2 days",294 U/L
same,AST,"[2]; Female NHP, 0.5 mg/kg, 4 days",63 U/L
same,AST,"[2]; Female NHP, 0.5 mg/kg, 7 days",68 U/L
same,AST,"[2]; Female NHP, 0.5 mg/kg, 14 days",67 U/L
same,AST,[2]; [6],47 U/L
same,AST,"[2]; Male NHP, 0.005 mg/kg, 2 days",70 U/L
same,AST,"[2]; Male NHP, 0.005 mg/kg, 4 days",39 U/L
same,AST,"[2]; Male NHP, 0.005 mg/kg, 7 days",28 U/L
same,AST,"[2]; Male NHP, 0.005 mg/kg, 14 days",39 U/L
same,AST,[2]; [7],35 U/L
same,AST,"[2]; Male NHP, 0.05 mg/kg, 2 days",95 U/L
same,AST,"[2]; Male NHP, 0.05 mg/kg, 4 days",69 U/L
same,AST,"[2]; Male NHP, 0.05 mg/kg, 7 days",62 U/L
same,AST,"[2]; Male NHP, 0.05 mg/kg, 14 days",59 U/L
same,AST,"[2]; Male NHP, 0.05 mg/kg, Pre-dose",99 U/L
same,AST,"[2]; Male NHP, 0.5 mg/kg, 2 days",196 U/L
same,AST,"[2]; Male NHP, 0.5 mg/kg, 4 days",67 U/L
same,AST,"[2]; Male NHP, 0.5 mg/kg, 7 days",53 U/L
same,AST,"[2]; Male NHP, 0.5 mg/kg, 14 days",47 U/L
same,AST,"[2]; Male NHP, 0.5 mg/kg, Pre-dose",32 U/L
